# Data from patent US20050221433A1.
# Target: recombinant human IL-18 (human) (UniProt Q14116)
# Assay: cell-based or functional assay
# recombinant human IL-18 (human), sequence (Q14116 37-193 limits assumed): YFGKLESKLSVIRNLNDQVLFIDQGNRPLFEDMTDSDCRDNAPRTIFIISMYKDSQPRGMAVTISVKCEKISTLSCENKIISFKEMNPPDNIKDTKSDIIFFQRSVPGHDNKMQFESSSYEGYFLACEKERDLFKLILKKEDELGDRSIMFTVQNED
# hIL18BPa (64-192).TG.hFc, sequence (O95998 other isoform, or with tags, fused parts or gaps): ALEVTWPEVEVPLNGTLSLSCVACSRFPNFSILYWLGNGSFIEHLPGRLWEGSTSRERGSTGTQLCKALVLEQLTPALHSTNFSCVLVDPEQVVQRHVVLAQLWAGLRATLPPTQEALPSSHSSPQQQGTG
# hIL18BPa (1-168).TG.hFc, sequence (O95998 other isoform, or with tags, fused parts or gaps): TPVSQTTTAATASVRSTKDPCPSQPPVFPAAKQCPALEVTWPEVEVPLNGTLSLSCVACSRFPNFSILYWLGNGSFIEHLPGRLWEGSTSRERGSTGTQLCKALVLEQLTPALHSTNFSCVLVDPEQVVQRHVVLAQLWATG
# hIL18BPa (1-192).His, sequence (O95998 31-194): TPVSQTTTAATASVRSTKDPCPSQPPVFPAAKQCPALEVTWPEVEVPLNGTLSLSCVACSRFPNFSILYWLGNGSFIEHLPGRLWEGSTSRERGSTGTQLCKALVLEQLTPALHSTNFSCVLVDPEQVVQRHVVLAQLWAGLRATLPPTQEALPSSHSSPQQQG
# hIL18BPa (58-192).TG.his, sequence (O95998 other isoform, or with tags, fused parts or gaps): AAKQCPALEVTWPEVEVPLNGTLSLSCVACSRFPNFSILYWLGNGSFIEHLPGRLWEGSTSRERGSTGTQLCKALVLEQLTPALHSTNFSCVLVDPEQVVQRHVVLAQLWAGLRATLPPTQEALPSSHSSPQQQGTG
row,"IC50 (M), HEK293/NFkB-luciferase bioassay",Substance
1,1.51e-10 M,hFc.TG.hIL18BPa (58-192) (C129S). (from UniProt O95998 60-194) (Fc fusion)
2,1.75e-09 M,hIL18BPa (1-168).TG.hFc (from UniProt O95998 31-170) (Fc fusion)
3,2.06e-10 M,"hIL18BPa (1-192) (C49S, C129S).hIL18Rβ.hFc (Fc fusion)"
4,2.6e-05 M,hIL18BPa (1-192) (C84S).TG.hFc (from UniProt O95998 31-194) (Fc fusion)
5,2.05e-10 M,hIL18BPa (1-192) (C129S).hFc (from UniProt O95998 31-194) (Fc fusion)
6,2.1e-10 M,hIL18BPa (1-192).His (from UniProt O95998 31-194) (receptor)
7,7.56e-09 M,"hIL18BPa (58-192) (C62S, C87S, C129S).TG.hFc (from UniProt O95998 60-194) (Fc fusion)"
8,2.98e-09 M,hIL18BPa (58-192) (C129D).TG.hFc (from UniProt O95998 60-194) (Fc fusion)
9,5.15e-10 M,hIL18BPa (58-192) (C129E).TG.hFc (from UniProt O95998 60-194) (Fc fusion)
10,8.44e-11 M,hIL18BPa (58-192) (C129H).TG..hFc (from UniProt O95998 60-194) (Fc fusion)
11,7.42e-11 M,hIL18BPa (58-192) (C129K).TG.hFc (from UniProt O95998 60-194) (Fc fusion)
12,4e-11 M,hIL18BPa (58-192) (C129S).biot.His (from UniProt O95998 60-194) (receptor)
13,7.3e-09 M,"hIL18BPa (58-192) (C129S, C148S).TG.hFc (from UniProt O95998 60-194) (Fc fusion)"
14,9e-09 M,"hIL18BPa (58-192)(C62S, C129S).TG.hFc (from UniProt O95998 60-194) (Fc fusion)"
15,7.38e-09 M,hIL18BPa (58-192)(C84S).TG.hFc (from UniProt O95998 60-194) (Fc fusion)
16,7.5e-09 M,"hIL18BPa (58-192)(C87S, C129S).TG.hFc (from UniProt O95998 60-194) (Fc fusion)"
17,9.7e-09 M,"hIL18BPa (58-192)(C87S, C129S, C148S).TG.hFc (from UniProt O95998 60-194) (Fc fusion)"
18,4.1e-10 M,hIL18BPa (58-192).TG.his (from UniProt O95998 60-194) (receptor)
19,7e-09 M,hIL18BPa (64-192).TG.hFc (from UniProt O95998 66-194) (Fc fusion)
20,6.7e-09 M,"hIL18BPa(58-192)(C62S, C129S, C148S).TG.hFc (from UniProt O95998 60-194) (Fc fusion)"
21,2.3e-09 M,hIL18Rβ.SG.hIL18BPa (58-192).TG.hFc (Fc fusion)
22,1.38e-09 M,"hIL18Rβ.hIL18BPa (1-192) (C49S, C129S).hFc (Fc fusion)"
